Article PMC10576128
Where two headings read alike, the source gives them in different places.

What was measured:
[1] = target: prothymosin α (unlabeled) (human) (UniProt P06454); assay: ITC
[2] = target: ProTα E56C/D110C labeled with Alexa Fluors 488 and 594 (human) (UniProt P06454); assay: FRET or BRET
[3] = target: ProTα-H1 dimer (PH) of labeled ProTα E56C/D110C and unlabeled H1 (human) (UniProt P06454); assay: FRET or BRET
[4] = target: prothymosin α (unlabeled) (human) (UniProt P06454); assay: ITC; remark: listed apart in the source
[5] = target: ProTα-H1 dimer (PH) of labeled ProTα E56C/D110C and unlabeled H1 (human) (UniProt P06454); assay: FRET or BRET; remark: listed apart in the source
[6] = target: ProTα E56C/D110C labeled with Alexa Fluors 488 and 594 (human) (UniProt P06454); assay: FRET or BRET; remark: listed apart in the source
[7] = target: ProTα-H1 dimer (PH) of unlabeled ProTα and unlabeled H1 (human) (UniProt P06454); assay: FRET or BRET

Molecule | dH [1] [kJ/mol] | Kd [2] [nM] | Kd [3] [µM] | dH [4] [kJ/mol] | Kd [5] [nM] | Kd [6] [nM] | Kd [7] [nM]
linker histone H1 (from UniProt P07305 1-194) (natural protein) | 58 | 1.2 | 13 | 35 | 120 | 0.92 | –
prothymosin α (unlabeled) (natural protein) MSDAAVDTSSEITTKDLKEKKEVVEEAENGRDAPANGNAENEENGEQEADNEVDEEEEEGGEEEEEEEEGDGEEEDGDEDEEAESATGKRAAEDDEDDDVDTKKQKTDEDD | – | – | – | – | – | – | 3000
